Results from publication PMC6936867 (2019).

B1: FcγRIIb (receptor)
chain: TPAAPPKAVLKLEPQWINVLQEDSVTLTCRGTHSPESDSIQWFHNGNLIPTHTQPSYRFKANNNDSGEYTCQTGQTSLSDPVHLTVLSEWLVLQTPHLEFQEGETIVLRCHSWKDKPLVKVTFFQNGKSKKFSRSDPNFSIPQANHSHSGDYHCTGNIGYTLYSSKPVTITVQAPSSSPMGIIVAVVTGIAVAAIVAAVVALIYCRKKRISALPGYPECREMGETLPEKPANPTNPDEADKVGAENTITYSLLMHPDALEEPDDQNRI
B2: FcγRIIa H131 (receptor)
chain: QAAAPPKAVLKLEPPWINVLQEDSVTLTCQGARSPESDSIQWFHNGNLIPTHTQPSYRFKANNNDSGEYTCQTGQTSLSDPVHLTVLSEWLVLQTPHLEFQEGETIMLRCHSWKDKPLVKVTFFQNGKSQKFSHLDPTFSIPQANHSHSGDYHCTGNIGYTLFSSKPVTITVQVPSMGSSSPMGIIVAVVIATAVAAIVAAVVALIYCRKKRISANSTDPVKAAQFEPPGRQMIAIRKRQLEETNNDYETADGGYMTLNPRAPTDDDKNIYLTLPPNDHVNSNN
B3: FcγRIIa R131 (receptor)
chain: QAAAPPKAVLKLEPPWINVLQEDSVTLTCQGARSPESDSIQWFHNGNLIPTHTQPSYRFKANNNDSGEYTCQTGQTSLSDPVHLTVLSEWLVLQTPHLEFQEGETIMLRCHSWKDKPLVKVTFFQNGKSQKFSRLDPTFSIPQANHSHSGDYHCTGNIGYTLFSSKPVTITVQVPSMGSSSPMG

Target: CAP256 pIgG
Test: SPR

Binder	Kd
B1	5.3 µM
B2	5.8 µM
B3	4.6 µM
